According to patent US7572594B2, “Screening assays for agonists or antagonists or receptor activator of NF-κB” (Immunex Corporation, priority 2000, dated 2009):

Tests used:
[1] = test system: MMP-9 (SEQ ID NO:11)/luciferase promoter; assay: MMP-9/luciferase reporter in RAW 264.7 cells; assay type: cell-based, murine; conditions: 1 μg/ml for 18 hours
Protocol: Additionally, RAW 264.7 cells (6×10^6 cells) were transfected with 15 μg of MMP-9 (SEQ ID NO:11)/luciferase plasmid DNA using DEAE/dextran. Two hours after transfection, cells were divided into two equal amounts and further incubated for 24 hours. Addition of 1 μg/ml of a leucine zipper form of murine RANK-L for 18 hours was sufficient to induce the MMP-9 (SEQ ID NO:11)/luciferase promoter 10-15 fold.

mouse TRAP mRNA = assay: Quantitative RT-PCR of TRAP mRNA in RAW 264.7 cells; assay type: cell-based; conditions: RANKL/LZ 200 ng/ml or TNFα 20 ng/ml, various times
mouse MMP-9 mRNA = assay: Quantitative RT-PCR of MMP-9 mRNA in RAW 264.7 cells; assay type: cell-based; conditions: RANKL/LZ 200 ng/ml or TNFα 20 ng/ml, various times
Description: MMP-9 mRNA is elevated greater than 350-fold by RANK-L, but is not increased by TNFα. This specificity is helpful in screening for inhibitors of RANK signal transduction.

B1: leucine zipper form of murine RANK-L: soluble leucine zipper fusion of murine RANK-L (protein)
chain: YFRAQMDPNRISEDSTHCFYRILRLHENADLQDSTLESEDTLPDSCRRMKQAFQGAVQKELQHIVGPQRFSGAPAMMEGSWLDVAQRGKPEAQPFAHLTINAASIPSGSHKVTLSSWYHDRGWAKISNMTLSNGKLRVNQDGFYYLYANICFRHHETSGSVPTDYLQLMVYVVKTSIKIPSSHNLMKGGSTKNWSGNSEFHFYSINVGGFFKLRAGEEISIQVSNPSLLDPDQDATYFGAFKVQDID
modifications: left off: a dimerising Fc or GST
- induction of MMP-9/luciferase promoter [1]: 10-15 fold
- TRAP mRNA elevation (mouse TRAP mRNA): greater than 250 fold
- MMP-9 mRNA elevation (mouse MMP-9 mRNA): greater than 350 fold
